Source: patent US20250019439A1 (Adimab, published 2025)

How the values were obtained:
ADI-70326 = biological target: T1, ADI-70326; test: SPR Carterra, yeast anti-ID
T1 construct: anti-CD3 antibody made in CHO cells, captured by anti-human Fc
Method: (§1) Kinetic analysis was conducted at 25° C. in an HBSTE running buffer system (Carterra Cat #3630) using a Carterra LSA (Carterra USA, Salt Lake City, UT). The sample compartment was maintained at 20° C. for the duration of each experiment.
(§2) For antibody capture experiments, a goat anti-human Fc antibody (Jackson ImmunoResearch) was covalently coupled to an HC30M sensor chip surface via standard amine coupling (1:1 EDC:NHS) and then blocked with ethanolamine (1.0 M, pH 8.5). Covalent coupling steps were performed in 25 mM MES buffer (Carterra, Cat #3625) plus 0.05% Tween20. The anti-CD3 antibodies (100 nM in running buffer) were flowed over discrete regions of interest on the chip surface for 5 minutes. […] Dissociation of the anti-idiotype antibodies was monitored for 300s. Several blank buffer samples were injected over the entire chip surface at the start of each non-regenerative kinetic cycle. The preceding blank buffer injection was used for blank surface subtraction. At the end of each non-regenerative kinetic cycle, all surfaces were regenerated via two 30s injections of 10 mM glycine, pH 1.7.
(§3) For data processing and fitting, sensorgrams were double reference subtracted with a baseline drift correction of 4 RU. Sensorgrams were y-aligned and baseline corrected, filtered and cropped to include only the association and dissociation steps. Data was fitted to a 1:1 binding model using Carterra Kinetics Data Analysis software version 1.7.1.3055.

ADI-70327 = biological target: T2, ADI-70327; test: SPR Carterra, yeast anti-ID
T2 construct: anti-CD3 antibody made in CHO cells, captured by anti-human Fc
Method: as §1, §2, §3

ADI-70330 = biological target: T3, ADI-70330; test: SPR Carterra, yeast anti-ID
T3 construct: anti-CD3 antibody made in CHO cells, captured by anti-human Fc
Method: as §1, §2, §3

ADI-67445 = biological target: T4, ADI-67445; test: SPR Carterra, yeast anti-ID
T4 construct: anti-CD3 antibody made in CHO cells, captured by anti-human Fc
Method: as §1, §2, §3

ADI-26909 = biological target: T5, ADI-26909; test: SPR Carterra, yeast anti-ID
T5 construct: anti-CD3 antibody made in CHO cells, captured by anti-human Fc
Method: as §1, §2, §3

ADI-26921 IgG = biological target: T6, ADI-26921 IgG; test: SPR Carterra, yeast anti-ID
T6 construct: anti-CD3 IgG
Method: as §1, §2, §3

ADI-26915 = biological target: T7, ADI-26915; test: SPR Carterra, yeast anti-ID
T7 construct: anti-CD3 antibody made in CHO cells, captured by anti-human Fc
Method: as §1, §2, §3

ADI-48587 = biological target: T8, ADI-48587; test: SPR Carterra, yeast anti-ID
T8 construct: pH-dependent anti-CD3 antibody made in CHO cells
Method: as §1, §2, §3

CTL-62223 = biological target: T9, CTL-62223; test: SPR Carterra, yeast anti-ID
T9 construct: also called mosunetuzumab
Method: as §1, §2, §3

CTL-62227 = biological target: T10, CTL-62227; test: SPR Carterra, yeast anti-ID
T10 construct: also called odronextamab
Method: as §1, §2, §3

CTL-62228 = biological target: T11, CTL-62228; test: SPR Carterra, yeast anti-ID
T11 construct: also called glofitamab
Method: as §1, §2, §3

CTL-62240 = biological target: T12, CTL-62240; test: SPR Carterra, yeast anti-ID
T12 construct: also called ONO-4685
Method: as §1, §2, §3

ADI-50024 = biological target: T13, ADI-50024; test: SPR Carterra avidity, yeast anti-ID
T13 construct: anti-CD3 antibody made in CHO cells, captured by anti-human Fc
Method: as §1, §2, §3

ADI-67450 = biological target: T14, ADI-67450; test: SPR Carterra avidity, yeast anti-ID
T14 construct: anti-CD3 antibody made in CHO cells, captured by anti-human Fc
Method: as §1, §2, §3

ADI-67447 = biological target: T15, ADI-67447; test: SPR Carterra avidity, yeast anti-ID
T15 construct: anti-CD3 antibody made in CHO cells, captured by anti-human Fc
Method: as §1, §2, §3

ADI-26913 IgG = biological target: T16, ADI-26913 IgG; test: SPR Carterra avidity, yeast anti-ID
T16 construct: anti-CD3 IgG
Method: as §1, §2, §3

ADI-26919 = biological target: T17, ADI-26919; test: SPR Carterra avidity, yeast anti-ID
T17 construct: anti-CD3 antibody made in CHO cells, captured by anti-human Fc
Method: as §1, §2, §3

ADI-26916 IgG = biological target: T18, ADI-26916 IgG; test: SPR Carterra avidity, yeast anti-ID
T18 construct: anti-CD3 IgG
Method: as §1, §2, §3

ADI-26912 = biological target: T19, ADI-26912; test: SPR Carterra avidity, yeast anti-ID
T19 construct: anti-CD3 antibody made in CHO cells, captured by anti-human Fc
Method: as §1, §2, §3

ADI-26924 = biological target: T20, ADI-26924; test: SPR Carterra avidity, yeast anti-ID
T20 construct: anti-CD3 antibody made in CHO cells, captured by anti-human Fc
Method: as §1, §2, §3

ADI-26943 = biological target: T21, ADI-26943; test: SPR Carterra avidity, yeast anti-ID
T21 construct: anti-CD3 antibody made in CHO cells, captured by anti-human Fc
Method: as §1, §2, §3

ADI-48576 = biological target: T22, ADI-48576; test: SPR Carterra avidity, yeast anti-ID
T22 construct: pH-dependent anti-CD3 antibody made in CHO cells
Method: as §1, §2, §3

ADI-48592 = biological target: T23, ADI-48592; test: SPR Carterra avidity, yeast anti-ID
T23 construct: pH-dependent anti-CD3 antibody made in CHO cells
Method: as §1, §2, §3

ADI-48650 = biological target: T24, ADI-48650; test: SPR Carterra avidity, yeast anti-ID
T24 construct: pH-dependent anti-CD3 antibody made in CHO cells
Method: as §1, §2, §3

ADI-74965 = biological target: T25, ADI-74965; test: SPR Carterra avidity, yeast anti-ID
T25 construct: pH-dependent anti-CD3 antibody made in CHO cells
Method: as §1, §2, §3

ADI-74966 = biological target: T26, ADI-74966; test: SPR Carterra avidity, yeast anti-ID
T26 construct: pH-dependent anti-CD3 antibody made in CHO cells
Method: as §1, §2, §3

ADI-74967 = biological target: T27, ADI-74967; test: SPR Carterra avidity, yeast anti-ID
T27 construct: pH-dependent anti-CD3 antibody made in CHO cells
Method: as §1, §2, §3

ADI-74968 = biological target: T28, ADI-74968; test: SPR Carterra avidity, yeast anti-ID
T28 construct: pH-dependent anti-CD3 antibody made in CHO cells
Method: as §1, §2, §3

ADI-76358 = biological target: T29, ADI-76358; test: SPR Carterra avidity, yeast anti-ID
T29 construct: anti-CD3 antibody made in CHO cells, captured by anti-human Fc
Method: as §1, §2, §3

ADI-76359 = biological target: T30, ADI-76359; test: SPR Carterra avidity, yeast anti-ID
T30 construct: anti-CD3 antibody made in CHO cells, captured by anti-human Fc
Method: as §1, §2, §3

ADI-76360 = biological target: T31, ADI-76360; test: SPR Carterra avidity, yeast anti-ID
T31 construct: anti-CD3 antibody made in CHO cells, captured by anti-human Fc
Method: as §1, §2, §3

ADI-76361 = biological target: T32, ADI-76361; test: SPR Carterra avidity, yeast anti-ID
T32 construct: anti-CD3 antibody made in CHO cells, captured by anti-human Fc
Method: as §1, §2, §3

ADI-76362 = biological target: T33, ADI-76362; test: SPR Carterra avidity, yeast anti-ID
T33 construct: anti-CD3 antibody made in CHO cells, captured by anti-human Fc
Method: as §1, §2, §3

ADI-22523 Fab = biological target: T34, ADI-22523 Fab; test: BLI; tip anti-ID IgG, solution ADI-22523 Fab
T34 construct: anti-CD3 Fab by papain digestion of the IgG
Method: (§4) ForteBio affinity measurements were performed generally as previously described (Estep et al., MAbs. 2013 5(2):270-8). Briefly, ForteBio affinity measurements were performed by loading antibody IgG or Fabs on-line onto AHC sensors. Sensors were equilibrated off-line in assay buffer for 30 minutes and then monitored on-line for 60 seconds for baseline establishment. For avid binding measurement, sensors with loaded antibodies were exposed to IgG or Fab solutions for 3 minutes, afterwards they were transferred to assay buffer for 3 minutes for off-rate measurement. Kinetics data were fit using a 1:1 binding model in the data analysis software provided by ForteBio to obtain equilibrium dissociation constant (KD=koff/kₒₙ) values. In each column, tip-immobilized antibodies are listed first and solution antibodies second.

ADI-22523 IgG = biological target: T35, ADI-22523 IgG; test: BLI; tip anti-ID IgG, solution ADI-22523 IgG
T35 construct: anti-CD3 IgG
Method: as §4

ADI-26906 IgG = biological target: T36, ADI-26906 IgG; test: SPR Carterra avidity, yeast anti-ID, *koff limit
T36 construct: anti-CD3 IgG
Method: as §1, §2, §3

ADI-26920 IgG = biological target: T37, ADI-26920 IgG; test: SPR Carterra avidity, yeast anti-ID, *koff limit
T37 construct: anti-CD3 IgG
Method: as §1, §2, §3

ADI-76357 = biological target: T38, ADI-76357; test: SPR Carterra avidity, yeast anti-ID, *koff limit
T38 construct: anti-CD3 antibody made in CHO cells, captured by anti-human Fc
Method: as §1, §2, §3

T23 sequence (VH, as listed by the source, chain 1 of 2): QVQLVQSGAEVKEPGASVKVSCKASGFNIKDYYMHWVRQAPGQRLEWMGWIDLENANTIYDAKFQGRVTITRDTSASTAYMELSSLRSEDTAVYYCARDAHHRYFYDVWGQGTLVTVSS
T23 sequence (VL, as listed by the source, chain 2 of 2): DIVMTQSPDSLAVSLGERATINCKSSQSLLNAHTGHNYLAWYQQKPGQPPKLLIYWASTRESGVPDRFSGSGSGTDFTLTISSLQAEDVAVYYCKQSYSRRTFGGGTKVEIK
T27 sequence (VH, as listed by the source, chain 1 of 2): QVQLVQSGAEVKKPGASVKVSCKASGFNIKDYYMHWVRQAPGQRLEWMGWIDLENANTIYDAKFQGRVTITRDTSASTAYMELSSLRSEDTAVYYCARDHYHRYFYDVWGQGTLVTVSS
T27 sequence (VL, as listed by the source, chain 2 of 2): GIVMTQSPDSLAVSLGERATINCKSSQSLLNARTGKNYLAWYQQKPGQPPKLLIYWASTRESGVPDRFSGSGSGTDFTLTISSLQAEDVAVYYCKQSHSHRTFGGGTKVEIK
T26 sequence (VL, as listed by the source, chain 2 of 2): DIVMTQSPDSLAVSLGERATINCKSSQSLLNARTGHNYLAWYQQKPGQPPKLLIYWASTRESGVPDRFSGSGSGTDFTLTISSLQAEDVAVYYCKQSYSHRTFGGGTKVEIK
T8 sequence (VL, as listed by the source, chain 2 of 2): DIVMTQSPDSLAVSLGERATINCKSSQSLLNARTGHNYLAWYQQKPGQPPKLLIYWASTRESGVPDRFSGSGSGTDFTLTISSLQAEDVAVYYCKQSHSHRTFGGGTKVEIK
T33 sequence (VH, as listed by the source, chain 1 of 2): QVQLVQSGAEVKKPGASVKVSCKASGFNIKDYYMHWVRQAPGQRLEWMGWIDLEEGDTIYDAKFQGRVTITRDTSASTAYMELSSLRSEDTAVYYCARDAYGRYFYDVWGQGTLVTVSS
T33 sequence (VL, as listed by the source, chain 2 of 2): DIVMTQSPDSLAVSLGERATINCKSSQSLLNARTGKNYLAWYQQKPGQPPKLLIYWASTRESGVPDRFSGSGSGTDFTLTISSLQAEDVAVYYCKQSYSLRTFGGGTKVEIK
T29 sequence (VH, as listed by the source, chain 1 of 2): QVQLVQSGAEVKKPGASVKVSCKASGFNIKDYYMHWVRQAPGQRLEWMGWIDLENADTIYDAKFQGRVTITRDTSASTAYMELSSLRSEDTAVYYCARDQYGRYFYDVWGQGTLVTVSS
T29 sequence (VL, as listed by the source, chain 2 of 2): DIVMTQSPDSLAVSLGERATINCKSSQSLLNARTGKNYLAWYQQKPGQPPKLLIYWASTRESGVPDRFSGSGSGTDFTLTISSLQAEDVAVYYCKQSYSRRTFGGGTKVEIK
T20 sequence (VH, as listed by the source, chain 1 of 2): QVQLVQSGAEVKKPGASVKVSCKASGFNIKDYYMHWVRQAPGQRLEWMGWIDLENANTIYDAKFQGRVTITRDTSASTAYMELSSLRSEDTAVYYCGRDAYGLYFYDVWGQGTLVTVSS
T5 sequence (VH, as listed by the source limits assumed, chain 1 of 2): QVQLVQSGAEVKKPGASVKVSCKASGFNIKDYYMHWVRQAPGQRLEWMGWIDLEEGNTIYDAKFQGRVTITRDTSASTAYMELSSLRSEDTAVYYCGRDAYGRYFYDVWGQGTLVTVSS
T3 sequence (VH, as listed by the source limits assumed, chain 1 of 2): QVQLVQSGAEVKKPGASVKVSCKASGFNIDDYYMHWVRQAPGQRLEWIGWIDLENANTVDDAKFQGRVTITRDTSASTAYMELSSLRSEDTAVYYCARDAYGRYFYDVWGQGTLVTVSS
T3 sequence (VL, as listed by the source limits assumed, chain 2 of 2): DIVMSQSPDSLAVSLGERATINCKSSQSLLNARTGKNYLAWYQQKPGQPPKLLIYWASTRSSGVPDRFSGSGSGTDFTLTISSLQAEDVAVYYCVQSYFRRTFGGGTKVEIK
T22 sequence (VH, as listed by the source, chain 1 of 2): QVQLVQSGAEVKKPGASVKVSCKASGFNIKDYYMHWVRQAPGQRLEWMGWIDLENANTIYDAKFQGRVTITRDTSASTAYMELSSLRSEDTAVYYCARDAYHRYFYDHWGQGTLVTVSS
T22 sequence (VL, as listed by the source, chain 2 of 2): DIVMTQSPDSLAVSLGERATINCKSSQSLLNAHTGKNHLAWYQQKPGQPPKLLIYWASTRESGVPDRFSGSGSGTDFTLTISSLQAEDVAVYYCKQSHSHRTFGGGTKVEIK
T16 sequence (VH, as listed by the source limits assumed, chain 1 of 2): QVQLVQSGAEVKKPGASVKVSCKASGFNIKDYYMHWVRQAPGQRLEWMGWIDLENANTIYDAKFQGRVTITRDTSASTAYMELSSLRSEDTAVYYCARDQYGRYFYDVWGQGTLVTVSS
T13 sequence (VH, as listed by the source limits assumed, chain 1 of 2): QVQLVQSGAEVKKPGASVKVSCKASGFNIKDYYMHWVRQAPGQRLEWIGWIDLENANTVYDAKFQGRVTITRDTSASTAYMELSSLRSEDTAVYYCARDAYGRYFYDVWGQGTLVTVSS
T38 sequence (VH, as listed by the source, chain 1 of 2): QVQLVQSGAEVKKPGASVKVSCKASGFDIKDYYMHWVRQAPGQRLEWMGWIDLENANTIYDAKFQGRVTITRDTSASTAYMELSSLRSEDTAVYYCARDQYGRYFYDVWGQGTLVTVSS
T18 sequence (VH, as listed by the source, chain 1 of 2): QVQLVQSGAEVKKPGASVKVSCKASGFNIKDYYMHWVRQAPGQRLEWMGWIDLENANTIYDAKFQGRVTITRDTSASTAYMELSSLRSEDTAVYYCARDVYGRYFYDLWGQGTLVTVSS
T32 sequence (VH, as listed by the source, chain 1 of 2): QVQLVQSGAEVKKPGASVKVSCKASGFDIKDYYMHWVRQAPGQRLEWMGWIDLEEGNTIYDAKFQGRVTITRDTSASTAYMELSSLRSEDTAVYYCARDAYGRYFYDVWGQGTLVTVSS
T35 sequence (VH, as listed by the source limits assumed, chain 1 of 2): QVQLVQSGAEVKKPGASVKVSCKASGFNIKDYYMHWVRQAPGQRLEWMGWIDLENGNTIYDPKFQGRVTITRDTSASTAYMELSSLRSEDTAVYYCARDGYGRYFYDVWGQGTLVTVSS
T35 sequence (VL, as listed by the source limits assumed, chain 2 of 2): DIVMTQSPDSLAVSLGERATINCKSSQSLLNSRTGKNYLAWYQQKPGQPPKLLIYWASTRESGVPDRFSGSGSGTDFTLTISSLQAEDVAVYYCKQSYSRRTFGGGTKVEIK
T25 sequence (VH, as listed by the source, chain 1 of 2): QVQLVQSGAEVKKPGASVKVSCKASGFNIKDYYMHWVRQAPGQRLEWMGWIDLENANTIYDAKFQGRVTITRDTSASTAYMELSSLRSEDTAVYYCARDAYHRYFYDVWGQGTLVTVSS

B1: ADI-34142 (antibody, V domains shown)
VH: EVQLLESGGGLVQPGGSLRLSCAASGFTFSSYAMSWVRQAPGKGLEWVSTISGSGGSTYYADSVKGRFTISRDNSKNTLYLQMNSLRAEDTAVYYCARLGGRRGSGSSYYYYYGMDVWGQGTTVTVSS
VL: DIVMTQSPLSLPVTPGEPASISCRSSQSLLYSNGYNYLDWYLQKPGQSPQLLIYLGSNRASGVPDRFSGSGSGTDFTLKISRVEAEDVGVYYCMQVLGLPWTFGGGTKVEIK
notes: anti-ID IgG
- binding result (ADI-70326): no binding (tested: up to 200 nM)
- binding result (ADI-70327): no binding (tested: up to 200 nM)
- binding result (ADI-70330): no binding (tested: up to 200 nM)
- binding result (ADI-67445): no binding (tested: up to 200 nM)
- binding result (ADI-26909): no binding (tested: up to 200 nM)
- binding result (ADI-26921 IgG): no binding (tested: up to 200 nM)
- binding result (ADI-26915): no binding (tested: up to 200 nM)
- binding result (ADI-48587): no binding (tested: up to 200 nM)
- binding result (CTL-62223): no binding (tested: up to 200 nM)
- binding result (CTL-62227): no binding (tested: up to 200 nM)
- binding result (CTL-62228): no binding (tested: up to 200 nM)
- binding result (CTL-62240): no binding (tested: up to 200 nM)
- binding result (ADI-50024): binds
- binding result (ADI-67450): binds
- Kd (ADI-67447): 21 nM
- Kd (ADI-26913 IgG): 11 nM
- Kd (ADI-26919): 18 nM
- Kd (ADI-26916 IgG): 21 nM
- binding result (ADI-26912): binds
- Kd (ADI-26924): 32 nM
- Kd (ADI-26943): 6.5 nM
- Kd (ADI-48576): 76 nM
- binding result (ADI-48592): binds
- binding result (ADI-48650): binds
- binding result (ADI-74965): binds
- binding result (ADI-74966): binds
- binding result (ADI-74967): binds
- Kd (ADI-74968): 45 nM
- binding result (ADI-76358): binds
- Kd (ADI-76359): 7.3 nM
- Kd (ADI-76360): 36 nM
- binding result (ADI-76361): binds
- binding result (ADI-76362): binds
- Kd (ADI-22523 Fab): 14.7 nM
- Kd (ADI-22523 IgG): 4.11 nM
- Kd (ADI-26906 IgG): 12 nM
- Kd (ADI-26920 IgG): 6.1 nM
- Kd (ADI-76357): 5.7 nM
